Legend:
PGs = conditions: cited from earlier work
Description: In many cases, a single hormone has multiple functions regulating many physiological phenomena. Thus, both the regulation of receptor expression in the target tissue and the regulation of hormone release are important for the hormone to only affect the target tissue at the appropriate time. In the case of PTTH, the titer of the hormone in the hemolymph is clearly correlated with the ecdysteroid titer ... || In insects, neuropeptide hormones affect the target tissue via humoral and neuronal pathways. […] The increase in intracellular cAMP is thought to be regulated by Ca^2+ signaling in the PTTH signaling pathway, [37]. […] PDF sig ... || (+ 1 further places)

PGs of B. mori = experiment: Ecdysone biosynthesis in cultured PGs (LC-MS/MS); type: cell-based, Bombyx mori
Procedure: Two strains of the silkworm B. mori were used for this study. The p50T strain was used for NGS analysis and tissue distribution analysis, and the Kinshu x Showa strain was used for other experiments. The p50T strain was reared on mulberry leaves at room temperature. The Kinshu x Showa strain was reared on an artificial diet (SilkMate PS: Nihon Nosan Kogyo) at 25°C under a 16L:8D photoperiod. The first feeding day was designated as day 0.
Dissected PGs were rinsed with Grace's insect culture medium (Gibco) and pre-cultured individually in 100 µl medium in 96-well plates (BD Falcon) at 25°C for 30 min. To evaluate the effect of extracellular Ca^2+ on ecdysone biosynthesis, lepidopteran saline and lepidopteran saline using NaCl as a replacement for CaCl2 were used. For the pharmacological analysis, the PG was pre-treated with the inhibitor for 15 min during the pre-culture period. Following this treatment, the PG was cultured in the desired conditions for the desired period (Ecdysone assay: 3 hours; cAMP assay: 30 min; and Protein phosphorylation assay: 15 min). Actinomycin D, H-89 and cycloheximide (CHX) were purchased from Sigma; Rapamycin was purchased from Santa Cruz Biotechnology; and LY294002 was purchased from Merck. H-89 was dissolved in water. The other inhibitors were dissolved in DMSO. […]
Prior to ecdysteroids extraction, the 100 µl of cultured medium was diluted with equal volume of MilliQ water. […] Quantification of ecdysteroids using LC-MS/MS was performed as previously described with some modifications. […] The separated ecdysteroids were quantified with the QTRAP5500 MS/MS system (AB SCIEX) using MRM mode. For the quantitative analysis, standard curves were generated with concentrations of 0.98–1000 ng/ml.
The effect of PDF and DH31 on ecdysone biosynthesis was evaluated in the PGs of B. mori. The PGs of V7 larvae were cultured with PDF or DH31, and the amount of ecdysone synthesized was measured using LC-MS/MS [21]. […]
Figure 3 Prothoracicotropic activities of PDF in vitro. […] Statistically significant differences were evaluated by Student's t-test (***P<0.001, **P<0.01, *P<0.05).

B1: PTTH: prothoracicotropic hormone, humoral pathway-mediated tropic hormone (protein, UniProt P17219 116-224, looked up)
Prothoracicotropic hormone: GNIQVENQAIPDPPCTCKYKKEIEDLGENSVPRFIETRNCNKTQQPTCRPPYICKESLYSITILKRRETKSQESLEIPNELKYRWVAESHPVSVACLCTRDYQLRYNNN
modifications: Prothoracicotropic hormone
response of V4 PGs, ecdysone synthesis in vitro (literature) (PGs; PGs of V4, ref [8]): capable of responding to PTTH stimulus and synthesize ecdysone in vitro | ecdysone biosynthesis when extracellular Ca2+ is depleted (literature) (PGs; extracellular Ca2+ depleted, ref [27], [37]): cannot stimulate ecdysone biosynthesis when extracellular Ca^2+ is depleted | effect of a transcription inhibitor on PTTH- and dbcAMP-induced ecdysone biosynthesis (literature) (PGs; ref [39]): ecdysone biosynthesis was suppressed by a transcription inhibitor | ecdysone biosynthesis without extracellular Ca2+ (PGs of B. mori; Ca2+-free lepidopteran saline (CaCl2 replaced by NaCl), n = 6): did not induce ecdysone biosynthesis | EC50 (PGs of B. mori; dose-response, cultured PGs of V7 larvae, 3 hours, LC-MS/MS, PTTH n = 10–38, read-out: EC50 (ecdysone biosynthesis, prothoracicotropic activity)): 108 pM | concentration of highest prothoracicotropic activity (PGs of B. mori; dose-response, cultured PGs of V7 larvae, LC-MS/MS): 10^−9 M
